Laboratory results as given in US20230406935A1 (F STAR THERAPEUTICS, published 2023).
Where two headings read alike, the source gives them in different places.

B1: FS17-33-449AA/MSL109 mock mAb^2 (bispecific antibody, human IgG1, kappa, L234A L235A)
heavy: EEQVLESGGGLVKPGGSLRLSCAASGFTFSPYSVFWVRQAPGKGLEWVSSINSDSTYKYYADSVKGRFTISRDNAENSIFLQMNSLRAEDTAVYYCARDRSYYAFSSGSLSDYYYGLDVWGQGTTVIVSSASTKGPSVFPLAPSSKSTSGGTAALGCLVKDYFPEPVTVSWNSGALTSGVHTFPAVLQSSGLYSLSSVVTVPSSSLGTQTYICNVNHKPSNTKVDKKVEPKSCDKTHTCPPCPAPEAAGGPSVFLFPPKPKDTLMISRTPEVTCVVVDVSHEDPEVKFNWYVDGVEVHNAKTKPREEQYNSTYRVVSVLTVLHQDWLNGKEYKCKVSNKALPAPIEKTISKAKGQPREPQVYTLPPSRDETGYWVSLTCLVKGFYPSDIAVEWESNGEPQYWAKTTPPVLDSDGSFFLYSKLTVSNWRWQLDDVFSCSVMHEALHNHYTQKSLSLSPGK
light: DIVMTQSPLSLSVTPGEPASISCRSSQSLLHTNGYNYLDWYVQKPGQSPQLLIYLASNRASGVPDRFSGSGSGTDFTLKISRVETEDVGVYYCMQALQIPRTFGQGTKVEIKRTVAAPSVFIFPPSDEQLKSGTASVVCLLNNFYPREAKVQWKVDNALQSGNSQESVTEQDSKDSTYSLSSTLTLSKADYEKHKVYACEVTHQGLSSPVTKSFNRGEC
B2: FS17-33-539AA/MSL109 (bispecific antibody, human IgG1, kappa, L234A L235A)
heavy: EEQVLESGGGLVKPGGSLRLSCAASGFTFSPYSVFWVRQAPGKGLEWVSSINSDSTYKYYADSVKGRFTISRDNAENSIFLQMNSLRAEDTAVYYCARDRSYYAFSSGSLSDYYYGLDVWGQGTTVIVSSASTKGPSVFPLAPSSKSTSGGTAALGCLVKDYFPEPVTVSWNSGALTSGVHTFPAVLQSSGLYSLSSVVTVPSSSLGTQTYICNVNHKPSNTKVDKKVEPKSCDKTHTCPPCPAPEAAGGPSVFLFPPKPKDTLMISRTPEVTCVVVDVSHEDPEVKFNWYVDGVEVHNAKTKPREEQYNSTYRVVSVLTVLHQDWLNGKEYKCKVSNKALPAPIEKTISKAKGQPREPQVYTLPPSRDETGYWVSLTCLVKGFYPSDIAVEWESNGEPQYWAKTTPPVLDSDGSFFLYSKLTVSNWRWQLGDVFSCSVMHEALRNHYTQKSLSLSPGK
light: DIVMTQSPLSLSVTPGEPASISCRSSQSLLHTNGYNYLDWYVQKPGQSPQLLIYLASNRASGVPDRFSGSGSGTDFTLKISRVETEDVGVYYCMQALQIPRTFGQGTKVEIKRTVAAPSVFIFPPSDEQLKSGTASVVCLLNNFYPREAKVQWKVDNALQSGNSQESVTEQDSKDSTYSLSSTLTLSKADYEKHKVYACEVTHQGLSSPVTKSFNRGEC
B3: FS17-33-451AA/MSL109 mock mAb^2 (bispecific antibody, human IgG1, kappa, L234A L235A)
heavy: EEQVLESGGGLVKPGGSLRLSCAASGFTFSPYSVFWVRQAPGKGLEWVSSINSDSTYKYYADSVKGRFTISRDNAENSIFLQMNSLRAEDTAVYYCARDRSYYAFSSGSLSDYYYGLDVWGQGTTVIVSSASTKGPSVFPLAPSSKSTSGGTAALGCLVKDYFPEPVTVSWNSGALTSGVHTFPAVLQSSGLYSLSSVVTVPSSSLGTQTYICNVNHKPSNTKVDKKVEPKSCDKTHTCPPCPAPEAAGGPSVFLFPPKPKDTLMISRTPEVTCVVVDVSHEDPEVKFNWYVDGVEVHNAKTKPREEQYNSTYRVVSVLTVLHQDWLNGKEYKCKVSNKALPAPIEKTISKAKGQPREPQVYTLPPSRDEEGYWVSLTCLVKGFYPSDIAVEWESNGEPQYWAKTTPPVLDSDGSFFLYSKLTVSNWRWQLDDVFSCSVMHEALHNHYTQKSLSLSPGK
light: DIVMTQSPLSLSVTPGEPASISCRSSQSLLHTNGYNYLDWYVQKPGQSPQLLIYLASNRASGVPDRFSGSGSGTDFTLKISRVETEDVGVYYCMQALQIPRTFGQGTKVEIKRTVAAPSVFIFPPSDEQLKSGTASVVCLLNNFYPREAKVQWKVDNALQSGNSQESVTEQDSKDSTYSLSSTLTLSKADYEKHKVYACEVTHQGLSSPVTKSFNRGEC
notes: also called FS17-33-451AA/MSL109 (parent 2)
B4: Fcab FS17-33 with LALA mutation (pTT5-FS17-33AA) (designed binder)
chain: TCPPCPAPEAAGGPSVFLFPPKPKDTLMISRTPEVTCVVVDVSHEDPEVKFNWYVDGVEVHNAKTKPREEQYNSTYRVVSVLTVLHQDWLNGKEYKCKVSNKALPAPIEKTISKAKGQPREPQVYTLPPSRDEQSGYWVSLTCLVKGFYPSDIAVEWESNGQPENNYKTTPPVLDSDGSFFLYSKLTVSNWRWQMGDFSCSVMHEALHNHYTQKSLSLSPGK
B5: Fcab FS17-33-37 with LALA mutation (designed binder)
chain: TCPPCPAPEAAGGPSVFLFPPKPKDTLMISRTPEVTCVVVDVSHEDPEVKFNWYVDGVEVHNAKTKPREEQYNSTYRVVSVLTVLHQDWLNGKEYKCKVSNKALPAPIEKTISKAKGQPREPQVYTLPPSRDEQVGYWVSLTCLVKGFYPSDIAVEWESNGQPENNYKTTPPVLDSDGSFFLYSKLTVSNWRWQMDDFSCSVMHEALHNHYTQKSLSLSPGK
notes: also called FS17-33-37AA

Legend:
[1] = molecular target: T1, Biotinylated hPD-L1-Fc-Avi (human, UniProt Q9NZQ7 19-238); assay: cell-based RBA, blocking of hPD-L1-Fc-Avi binding to HEK293 hCD80 cells; PD-L1 at 50 µg/mL
[2] = molecular target: T2, Human PD-L1 expressed on cells (human, UniProt Q9NZQ7 19-290); assay: flow cytometry, HEK293 cells overexpressing the target, anti-human Fc 488
T2 construct: also called cell-surface human PD-L1; hPD-L1
Protocol: (§1) Cell binding assays were performed by incubating Fcabs or mAb² proteins with either control HEK293 cells or HEK293 cells overexpressing hPD-L1 or cynomolgus PD-L1 cells for 1 hour at 4° C. Fcab/mAb binding was subsequently detected using an anti-human Fc 488 detection antibody. Fluorescent signal intensities were measured using a FACS canto.

[3] = molecular target: T3, Cynomolgus PD-L1 expressed on HEK 293 cells (cynomolgus, UniProt Q9NZQ7 19-290 (human entry)); assay: as above
T3 construct: also called cell-expressed cynomolgus PD-L1
Protocol: as §1

[4] = molecular target: T1, Biotinylated hPD-L1-Fc-Avi; assay: cell-based RBA, blocking of hPD-L1-Fc-Avi binding to HEK293 hPD-1 cells
Protocol: The ability of the Fcabs and mock mAb² to block hPD-1/hPD-L1 and hPD-L1/hCD80 interactions was tested in cell-based Receptor Binding Assays (RBA). […] The mix was incubated for another hour with HEK293 cells overexpressing either hPD-1 or hCD80.

[5] = molecular target: T4, Monomeric cynomolgus PD-L1 (Acro Biosciences PD1-C52H4) (cynomolgus, UniProt Q9NZQ7 19-238 (human entry)); assay: SPR Biacore T200, mAb^2 captured by anti-Fab on CM5, monomeric antigen in flow, 1:1 fit
T4 construct: also called cynomolgus monomeric PD-L1

[6] = molecular target: T5, Monomeric His-tagged human PD-L1 (Acro biosystems PD1-H5229) (human, UniProt Q9NZQ7 19-238); assay: as above
T5 construct: also called hPD-L1-his; PD-L1-his

[7] = molecular target: T2, Human PD-L1 expressed on cells; assay: flow cytometry, HEK293 cells overexpressing the target, anti-human Fc 488; remark: listed apart in the source
Protocol: as §1, with “the mock” for “Fcabs or”, “mAb²” for “mAb² proteins”, “Mock mAb²” for “Fcab/mAb”, “Canto flow cytometer (BD Biosciences).” for “canto.”

[8] = molecular target: T3, Cynomolgus PD-L1 expressed on HEK 293 …; assay: as above; remark: listed apart in the source
Protocol: as §1, with “the mock” for “Fcabs or”, “mAb²” for “mAb² proteins”, “Mock mAb²” for “Fcab/mAb”, “Canto flow cytometer (BD Biosciences).” for “canto.”

[9] = molecular target: T2, Human PD-L1 expressed on cells; assay: cell-based or functional assay
[10] = molecular target: T2, Human PD-L1 expressed on cells; assay: cell-based or functional assay; remark: listed apart in the source
[11] = molecular target: T1, Biotinylated hPD-L1-Fc-Avi; assay: cell-based RBA (Example 8.3), blocking of hPD-L1-Fc-Avi binding to HEK293 hPD-1 cells
Protocol: (§2) The ability of the mock mAb² to block hPD-1/hPD-L1 and hPD-L1/hCD80 interactions was tested in cell-based Receptor Blocking Assays (RBA). […] The mix was incubated for another hour with HEK293 cells overexpressing either hPD-1 or hCD80.

[12] = molecular target: T1, Biotinylated hPD-L1-Fc-Avi; assay: cell-based RBA (Example 8.3), blocking of hPD-L1-Fc-Avi binding to HEK293 hCD80 cells
Protocol: as §2

[13] = molecular target: T4, Monomeric cynomolgus PD-L1 (Acro …); assay: SPR Biacore T200, mock mAb^2 captured by anti-Fab on CM5, monomeric antigen in flow, 1:1 fit
[14] = molecular target: T5, Monomeric His-tagged human PD-L1 (Acro …); assay: as above
[15] = molecular target: T5, Monomeric His-tagged human PD-L1 (Acro …); assay: SPR Biacore T200 as Example 5.1, anti-Fab capture, monomeric hPD-L1-his
Protocol: Fcab and mAb² binding to human PD-L1 was assessed by both BIAcore and in a cell binding assay. To measure the affinity of the clones to monomeric hPD-L1-his, the mAb² were captured using an anti-Fab antibody coated on a CM5 chip (GE 28-9582-20 AC) and Fcabs were captured using a Protein A chip (GE 29127556) using a Biacore T200 (GE). To minimize mass transport effects, the capture level was minimized to 200RU and a fast flow rate of 75 μl/min was used. […] The analysis of the data was done using the Biacore T200 evaluation software. Curves subtracted against a blank flow cell and a run with no antigen were analysed using a 1:1 fitting model with no bulk analysis and Rmax analysed locally.
The selected CH3 domain sequences were subcloned and expressed in “mock” (MSL109) mAb² format with the LALA mutation in the CH2 domain, as described in Example 4.2.1, for further screening.

[16] = molecular target: T2, Human PD-L1 expressed on cells; assay: cell-based blocking of biotinylated PD-1 Fc binding to HEK 293 hPD-L1 cells, flow cytometry
Protocol: The blocking activity of the clones produced in Example 2.2.1 was analysed in a cell-based assay using HEK 293 cells overexpressing human PD-L1 (see 1.5 for development of the cell line). Briefly, HEK 293 cells expressing human PD-L1 were seeded at 1×10⁵ cells per well in a V-bottom 96-well plate in PBS. […] The plates were centrifuged at 1500 rpm for 3 minutes at 4° C. to pellet the cells. […] The plates were centrifuged at 1500 rpm for 3 minutes at 4° C. to pellet the cells, supernatant was discarded and the cells were resuspended in PBS. Streptavidin conjugated to Alexa 488 was diluted 1:1000 in PBS and 100 μl was added to the wells for 30 minutes at 4° C. The plates were centrifuged at 1500 rpm for 3 minutes at 4° C. to pellet the cells, supernatant discarded and the cells were resuspended in PBS with DAPI. The plate was read on FACS Canto (BD Bioscience) and the data analysed using FlowJoX.

[17] = molecular target: T5, Monomeric His-tagged human PD-L1 (Acro …); assay: SPR Biacore, captured on protein A, monomeric PD-L1-his in flow, 1:1 fit
Protocol: The monomeric PD-L1-his human antigen was flowed over the chip in titrating concentrations at a high flow rate to minimise mass transport limitations. The KDS were measured using a 1:1 fitting analysis with no refractive index correction and Rₘₐₓ set to local.

T1 sequence (Q9NZQ7 19-238 limits assumed): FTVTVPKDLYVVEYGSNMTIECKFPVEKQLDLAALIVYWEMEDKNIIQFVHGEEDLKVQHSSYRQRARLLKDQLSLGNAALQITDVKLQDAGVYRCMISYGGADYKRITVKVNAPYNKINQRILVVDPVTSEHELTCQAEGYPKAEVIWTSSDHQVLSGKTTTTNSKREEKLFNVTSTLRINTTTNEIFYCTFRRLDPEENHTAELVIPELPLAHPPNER
T5 sequence (Q9NZQ7 19-238 limits assumed): as above
T2 sequence (Q9NZQ7 19-290 limits assumed): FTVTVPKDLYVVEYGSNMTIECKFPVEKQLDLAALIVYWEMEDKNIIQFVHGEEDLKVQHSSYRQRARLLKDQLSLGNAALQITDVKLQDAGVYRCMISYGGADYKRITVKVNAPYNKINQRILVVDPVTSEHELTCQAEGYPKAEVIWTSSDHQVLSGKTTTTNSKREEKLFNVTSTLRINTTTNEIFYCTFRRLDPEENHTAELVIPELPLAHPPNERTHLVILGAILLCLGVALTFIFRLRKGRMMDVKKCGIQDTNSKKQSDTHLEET
T3 sequence (Q9NZQ7 other isoform, or with tags, fused parts or gaps limits assumed): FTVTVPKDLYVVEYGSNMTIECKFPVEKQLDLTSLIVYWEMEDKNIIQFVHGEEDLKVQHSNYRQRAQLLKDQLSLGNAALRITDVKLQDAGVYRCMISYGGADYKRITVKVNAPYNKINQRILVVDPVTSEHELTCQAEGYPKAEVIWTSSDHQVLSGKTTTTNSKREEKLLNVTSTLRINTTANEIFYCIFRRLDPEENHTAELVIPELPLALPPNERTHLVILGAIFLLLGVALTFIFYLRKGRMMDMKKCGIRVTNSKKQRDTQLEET
T4 sequence (Q9NZQ7 other isoform, or with tags, fused parts or gaps limits assumed): as the sequence (Q9NZQ7 19-238 limits assumed) above, with A33T, A34S, S62N, R68Q, Q82R, F173L, T185A, T192I, H215L counted along it

Binder | EC50 [1] [nM] | Kd [2] [nM] | Kd [3] [nM] | EC50 [4] [nM] | Kd [5] [nM] | Kd [6] [nM] | DO11.10 EC50 [9] [nM] | DO11.10 EC50 [10] [nM] | Kd [15] [nM] | koff [15] [s⁻¹] | IC50 [16] [nM] | other results
B1 | 194 | 7.88 | 3.6 | 1.96 | 0.6 | 0.38 | – | – | – | – | – | –
B2 | – | – | – | – | – | – | 2.91 | 3.14 | 0.39 | 0.000427 | – | EC50 [7]: 4.8 nM; EC50 [8]: 10 nM; EC50 [11]: 49.7 nM; EC50 [12]: 119 nM; Kd [13]: 0.95 nM; Kd [14]: 0.9 nM
B3 | 190 | 11.7 | 4.52 | 0.92 | 0.5 | 0.34 | 8.28 | 4.83 | 0.3 | 0.000329 | – | –
B4 | – | – | – | – | – | – | – | – | – | – | 17.7 | –
B5 | – | – | – | – | – | – | – | – | – | – | 8.1 | Kd [17]: 270 nM; koff [17]: 0.02 s⁻¹; kon [17]: 76000 M⁻¹ s⁻¹
